From patent publication US20150368327A1 (YOKOHAMA CITY UNIVERSITY, published 2015)

Assays:
[1] = target: T1, human Sema 3A protein (human, UniProt Q14563 21-771, limits assumed); assay: competitive ELISA on plate-coated human Sema 3A; competitor biotin-labelled avian-mouse chimeric antibody (clone No. 4-2) at 60 ng/mL
T1 construct: also called Human Sema 3A antigen; human-derived Sema 3A protein
T1 sequence (looked up): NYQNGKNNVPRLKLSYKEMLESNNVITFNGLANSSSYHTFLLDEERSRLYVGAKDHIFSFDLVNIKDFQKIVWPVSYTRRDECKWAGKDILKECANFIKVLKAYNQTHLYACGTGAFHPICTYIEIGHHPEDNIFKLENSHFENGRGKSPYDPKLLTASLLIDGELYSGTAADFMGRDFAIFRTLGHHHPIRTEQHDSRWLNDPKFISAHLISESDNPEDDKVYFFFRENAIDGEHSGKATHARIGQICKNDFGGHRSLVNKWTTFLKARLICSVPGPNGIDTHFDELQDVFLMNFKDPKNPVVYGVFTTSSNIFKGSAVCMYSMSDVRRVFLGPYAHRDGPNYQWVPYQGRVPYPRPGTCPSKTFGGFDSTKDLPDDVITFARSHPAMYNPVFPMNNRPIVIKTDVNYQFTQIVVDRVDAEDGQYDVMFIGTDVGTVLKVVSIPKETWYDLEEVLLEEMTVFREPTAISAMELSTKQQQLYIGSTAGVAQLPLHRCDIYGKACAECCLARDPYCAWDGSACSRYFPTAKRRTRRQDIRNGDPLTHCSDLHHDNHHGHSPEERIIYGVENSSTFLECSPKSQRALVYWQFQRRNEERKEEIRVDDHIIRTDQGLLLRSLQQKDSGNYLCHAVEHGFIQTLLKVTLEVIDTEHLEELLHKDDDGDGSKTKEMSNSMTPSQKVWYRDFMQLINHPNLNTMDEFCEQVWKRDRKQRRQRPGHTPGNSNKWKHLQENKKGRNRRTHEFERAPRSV
Protocol: The obtained clone No. 4-2-derived avian-mouse chimeric antibody in Example 1, the obtained humanized antibodies in Example 2 (Humanized-1 and Humanized-2) and avian-human chimeric antibody were subjected to competitive ELISA to evaluate affinity to the antigen. CL18M (+) avian-mouse chimeric antibody, which served as a negative control, was also measured for affinity to the antigen. Particular measurement conditions were as follows.
Firstly, 2.5 μg/mL of antigen (mouse and human Sema 3A protein) was dispensed into a 384 Well MaxiSorp Plate (Nunc) and reacted overnight at 4° C. in order to coat the plate with the antigen. The next day, the plate was washed three times with 50 μL/well of washing solution (PBS containing 0.05% Tween 20), to which was added 25 μL/well of blocking solution (PBS containing 1% bovine serum albumin) and the mixture was reacted for 30 minutes. Each of humanized antibodies (Humanized-1 and Humanized-2), avian-human chimeric antibody and avian-mouse chimeric antibody was subjected to serial doubling dilution, to which was mixed anti-Sema 3A avian-mouse chimeric antibody labeled with biotin to the final concentration of 60 ng/mL, and the mixture was reacted with the antigen solid phase plate which was washed three times with 50 μL/well of washing solution for one hour. The plate was washed five times with 50 μL/well of washing solution, to which was added 20 μL/well of diluent in which streptavidin labeled with horseradish peroxidase (HRP) (Thermo Fisher Scientific K.K.) was diluted 10000 times with PBS buffer and the mixture was reacted for 30 minutes. The plate was washed five times with 50 μL/well of washing solution, to which was added 20 μL/well of TMB+(Dako) and the mixture was chromogenically reacted for 20 minutes. Subsequently, to the each well was added 20 μL, of 1M sulfuric acid to quench the reaction. The absorbance was measured at 450 nm using Infinite M1000 (Tecan Trading AG).

[2] = target: T2, ovalbumin (OVA) (UniProt P01012 2-386); assay: antigen solid phase ELISA: coated ovalbumin (negative control), anti-mouse IgG2A-HRP, OD450
T2 sequence (looked up): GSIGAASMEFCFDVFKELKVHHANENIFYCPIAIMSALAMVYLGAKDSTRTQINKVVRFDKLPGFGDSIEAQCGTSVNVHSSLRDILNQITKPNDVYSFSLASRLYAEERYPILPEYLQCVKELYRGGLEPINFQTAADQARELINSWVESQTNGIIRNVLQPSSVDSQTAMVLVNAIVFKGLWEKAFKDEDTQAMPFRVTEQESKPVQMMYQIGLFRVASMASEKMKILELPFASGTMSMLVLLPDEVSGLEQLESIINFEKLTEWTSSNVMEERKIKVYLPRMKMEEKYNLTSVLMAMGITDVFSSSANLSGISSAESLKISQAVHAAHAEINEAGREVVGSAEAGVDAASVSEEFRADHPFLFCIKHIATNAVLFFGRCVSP
Protocol: The antigen specificity of the purified antibody was measured by ELISA with PBS buffer. 2.5 μg/mL of antigen was dispensed to a 96 well Maxi Sorp Plate (Nunc) and reacted overnight at 4° C. to coat the plate with an antigen (mouse Sema 3A protein). Ovalbumin, rabbit IgG and skim milk were immobilized in the plate as negative controls in similar manner in order to examine specificity of antibodies. The next day, the plate was washed three times with 200 μL/well of washing solution (PBS containing 0.05% Tween 20), to which was added 200 μL/well of blocking solution (PBS containing 0.5% skim milk) and the mixture was reacted for 30 minutes. The plate was washed three times with 200 μL/well of washing solution, to which was added 100 μL of culture supernatant containing antibody and the mixture was reacted for one hour. The plate was washed five times with 200 μL/well of washing solution, to which was added 100 μL/well of diluent in which anti-mouse IgG2A goat antibody labeled with horseradish peroxidase (HRP) (Bethyl Laboratories, Inc.) was diluted 2000 times with PBS buffer and the mixture was reacted for one hour. […] The absorbance was measured at 450 nm using μQuantBiomolecular Spectrometer (Bio Tek Instruments, Inc.) Results are shown in FIG. 2.

B1: Anti-Sema 3A avian-mouse chimeric antibody (clone No. 4-2-derived) (antibody, mouse IgG2a)
heavy: AVTLDESGGGLQTPGGALSLVCKASGFTFSSYPMGWVRQAPGKGLEWVAGIDDDGDSDTRYAPAVKGRATISRDNGQSTVRLQLNNLRAEDTGTYYCAKHTGIGANSAGSIDAWGHGTEVIVSSAKTTAPSVYPLAPVCGDTTGSSVTLGCLVKGYFPEPVTLTWNSGSLSSGVHTFPAVLQSDLYTLSSSVTVTSSTWPSQSITCNVAHPASSTKVDKKIEPRGPTIKPCPPCKCPAPNLLGGPSVFIFPPKIKDVLMISLSPIVTCVVVDVSEDDPDVQISWFVNNVEVHTAQTQTHREDYNSTLRVVSALPIQHQDWMSGKEFKCKVNNKDLPAPIERTISKPKGSVRAPQVYVLPPPEEEMTKKQVTLTCMVTDFMPEDIYVEWTNNGKTELNYKNTEPVLDSDGSYFMYSKLRVEKKNWVERNSYSCSVVHEGLHNHHTTKSFSRTPGK
light: ALTQPASVSANLGGTVKITCSGGGSYTGSYYYGWYQQKSPGSALVTMIYYNNKRPSDIPSRFSGSLSGSTNTLTITGVRADDEAVYFCGSADNSGDAFGAGTTLTVLGQPKSSPSVTLFPPSSEELETNKATLVCTITDFYPGVVTVDWKVDGTPVTQGMETTQPSKQSNNKYMASSYLTLTARAWERHSSYSCQVTHEGHTVEKSLSRADCS
notes: Avian variable regions of clone No. 4-2 with mouse IgG2a heavy and mouse lambda light constant regions; also called anti-Sema 3A avian-mouse chimeric antibody (IgG)
With B1 the IC50 [1] was 0.074 µg/mL and the binding result [2] was “no binding (tested: 100 ng/µL)”.
